# B1: HIV-1 distal NFAT site (Example 3) (dsDNA)
# DNA 1: GAAGAGGCCAATGAAGGAGAGAACAACA
# DNA 2: TGTTGTTCTCTCCTTCATTGGCCTCTTC
# B2: HIV-1 LTR distal ILF motif (-283 to -256) (dsDNA)
# DNA 1: GAAGAGGCCAATGAAGGAGAGAACAACA
# DNA 2: TGTTGTTCTCTCCTTCATTGGCCTCTTC
# B3: HIV-1 LTR proximal ILF motif (-223 to -195) (dsDNA)
# DNA 1: GAGGACGCGGAGAAAGAAGTGTTAGTGTG
# DNA 2: CACACTAACACTTCTTTCTCCGCGTCCTC
# B4: IL-2 promoter NFAT motif (-285 to -254) (dsDNA)
# DNA 1: AATTGGAGGAAAAACTGTTTCATACAGAAGGCGT
# DNA 2: ACGCCTTCTGTATGAAACAGTTTTTCCTCCAATT
# B5: CREB/ATF site, somatostatin promoter (-60 to -33) (dsDNA)
# DNA 1: GGTTCCTCCTTGGCTGACGTCAGAGAGAGA
# DNA 2: TCTCTCTCTGACGTCAGCCAAGGAGGAACC
# B6: AP1 site, adenovirus E3 promoter (-103 to -83) (dsDNA)
# DNA 1: GAAGTTCAGATGACTAACTCA
# DNA 2: TGAGTTAGTCATCTGAACTTC
# B7: HIV-1 proximal NFAT site (Example 3) (dsDNA)
# DNA 1: GAGGACGCGGAGAAAGAAGTGTTAAGTGTG
# DNA 2: CACACTTAACACTTCTTTCTCCGCGTCCTC
# Key:
# [1] = target: T1, GST/ILF fusion (Example 3) (Homo sapiens, UniProt Q01167 SEQ:1-540); experiment: competition; 1-, 5-, 20-fold excess against IL-2 NFAT probe; settings: tags: N-terminal GST (pGEX-3X)
# [2] = target: T2, glutathione S-transferase (UniProt P08515 P08515:1-218); experiment: EMSA; control; settings: tags: pGEX-3X (Pharmacia), chain copies: 2
# [3] = target: T3, beta-galactosidase/ILF fusion (Homo sapiens, UniProt Q01167 SEQ:138-372); experiment: competition; competes with HIV-LTR probe at 10- or 50-fold excess; settings: tags: N-terminal beta-galactosidase (lambda gt11)
# [4] = target: T4, GST/ILF amino, carboxyl and fork head deletion (Homo sapiens, UniProt Q01167 SEQ:97-186); experiment: EMSA; fork head deleted; construct naming differs between legend and methods; settings: tags: N-terminal GST (pGEX-3X)
# [5] = target: T5, GST/ILF amino and carboxyl deletion, fork head retained (Homo sapiens, UniProt Q01167 SEQ:97-367); experiment: EMSA; construct naming (delta2/delta3) differs between legend and methods; settings: tags: N-terminal GST (pGEX-3X)
# [6] = target: T6, GST/ILF delta1 (amino-terminal deletion) (Homo sapiens, UniProt Q01167 SEQ:97-540); experiment: EMSA; 4 ug protein; settings: tags: N-terminal GST (pGEX-3X)
# [7] = target: T4, GST/ILF amino, carboxyl and fork head …; experiment: EMSA; stated similar with proximal site; settings: tags: N-terminal GST (pGEX-3X)
# [8] = target: T6, GST/ILF delta1 (amino-terminal deletion); experiment: EMSA; stated similar binding with proximal site; settings: tags: N-terminal GST (pGEX-3X)
# [9] = target: T5, GST/ILF amino and carboxyl deletion, …; experiment: EMSA; stated similar binding with proximal site; settings: tags: N-terminal GST (pGEX-3X)
# [10] = target: T3, beta-galactosidase/ILF fusion; experiment: competition; complete competition; settings: tags: N-terminal beta-galactosidase (lambda gt11)
# [11] = target: T2, glutathione S-transferase; experiment: EMSA; control; settings: tags: pGEX-3X (Pharmacia), chain copies: 2, label: 32P (when probe)
# Excerpt: (§1) The constructs tested included a deletion of the amino terminus of ILF, a deletion of both the amino and carboxyl termini of ILF, or a deletion of the fork head domain in addition to the amino and carboxyl termini of ILF. Oligonucleotides corresponding to the distal ILF site in the HIV-LTR, the NFAT site in the IL-2 promoter, and an HIV-LTR fragment containing the distal ILF site were used in gel retardation analysis.
# (§2) Figure 5C: FIG. 5. Gel retardation analysis of glutathione S-transferase/ILF fusions. Gel retardation analysis was performed with either ILF oligonucleotides (A), a fragment extending from −310 and −255 in the HIV-LTR (B), or NFAT oligonucleotides (C) and 4 μg of each of the glutathione S-transferase/ILF fusions. Lane 0, probe alone; lane 1, glutathione S-transferase (GST) protein alone; lane 2, a deletion of both the amino and carboxyl-termini in the GST/ILF fusion (ΔILF3); lane 3, a deletion of the ILF fork head DNA binding domain in addition to the amino and carboxyl termini in the GST/ILF fusion (ΔILF2); lane 4, an amino-terminal deletion of ILF in the GST/ILF fusion (ΔILF1).
# [12] = target: T4, GST/ILF amino, carboxyl and fork head …; experiment: EMSA; fork head deleted; settings: tags: N-terminal GST (pGEX-3X); label: 32P (when probe)
# Excerpt: as §1, §2
# [13] = target: T1, GST/ILF fusion (Example 3); experiment: EMSA; self-competition observed; settings: tags: N-terminal GST (pGEX-3X); label: 32P (when probe)
# Method: Gel retardation of ILF with the IL-2 NFAT motif. (A) Oligonucleotides corresponding to the NFAT motif in the IL-2 promoter extending from −285 to −254 were end labeled with γP^32ATP and used in gel retardation analysis alone (lane 0), with glutathione-S-transferase (lane 1), or with a glutathione-S-transferase/ILF fusion protein (lanes 2–16). The specificity of binding was tested by competition with unlabeled oligonucleotides corresponding to the NFAT motif in the IL-2 promoter (lanes 2–4), sequences spanning −283 to −256 and −223 to −195 in the HIV-LTR which comprised distal (lanes 5–7) and proximal (lanes 8–10) NFAT motifs respectively, the hepatocyte nuclear factor HNF-3A binding site extending from −107 to −92 in the transthyretin promoter (lanes 11–13), and an AP-1 binding sequence extending from −103 to −83 in the early region 3 promoter (lanes 14–16). The unlabeled oligonucleotides were present in either an equimolar (lanes 2, 5, 8, 11, and 14), 5-fold (lanes 3, 6, 9, 12, and 15) or 20-fold (lanes 4, 7, 10, 13 and 16) molar excess of the labeled oligonucleotides. (B) Sequences of NFAT motifs in the IL-2 promoter and the distal and proximal regions of the HIV-LTR are shown.
# Two complexes I and II were noted; the major complex (I) was due to full-length GST/ILF while the lower complex (II) was due to GST/ILF degradation products. […]
# [14] = target: T6, GST/ILF delta1 (amino-terminal deletion); experiment: EMSA; 4 ug protein; settings: tags: N-terminal GST (pGEX-3X); label: 32P (when probe)
# Excerpt: as §1, §2
# [15] = target: T5, GST/ILF amino and carboxyl deletion, …; experiment: EMSA; 4 ug protein; settings: tags: N-terminal GST (pGEX-3X); label: 32P (when probe)
# Excerpt: as §1, §2
# [16] = target: T3, beta-galactosidase/ILF fusion; experiment: competition; up to 50-fold excess; settings: tags: N-terminal beta-galactosidase (lambda gt11)
# Method: Figure 2: FIG. 2. Gel retardation analysis with β-galactosidase/ILF fusion protein. An HIV-LTR fragment extending from −310 to −255 was used in gel retardations with either β-galactosidase or β-galactosidase/ILF purified with anti-β-galactosidase sepharose chromatography. Lane 1, probe alone; lane 2, probe with 3 μg of β-galactosidase extract; lane 3, probe with 3 μg of β-galactosidase/ILF extract. Competition analysis with either a 10-fold (lanes 4, 6, 8, 10) or 50-fold (lanes 5, 7, 9, 11) molar excess of unlabeled oligonucleotides corresponding to ILF (lanes 4 and 5), NFAT (lanes 6 and 7), AP1 (lanes 8 and 9) and CREB (lanes 10 and 11) binding motifs are shown. Figure 3B: FIG. 3. Amino acid sequence of the ILF coding region. (A) A 543 amino acid open reading frame encoded by a portion of the ILF cDNA. The shaded region indicates the region of homology of ILF with the fork head and HNF-3A DNA binding domains. The circled region (GAGSSG) SEQ ID NO:12 contains homology with a nucleotide binding sequence, the boxed region (RKRRPR) SEQ ID NO:13 contains a potential nuclear localization signal, the underlined sequence (RTPLGPLSS) SEQ ID NO:14 is homologous to a region required for ubiquitin-mediated degradation, and the dotted line (NGT) indicates a potential N-glycosylation site. (B) The 3.0 kb ILF cDNA and the position of the 1629 bp open reading frame. […]
# [17] = target: T3, beta-galactosidase/ILF fusion; experiment: competition; up to 50-fold excess; settings: tags: N-terminal beta-galactosidase (lambda gt11); remark: listed apart in the source
# [18] = target: T1, GST/ILF fusion (Example 3); experiment: competition; no significant competition (also SEQ 27); settings: tags: N-terminal GST (pGEX-3X)
# T6 sequence (Q01167 217-660, stated change not applied): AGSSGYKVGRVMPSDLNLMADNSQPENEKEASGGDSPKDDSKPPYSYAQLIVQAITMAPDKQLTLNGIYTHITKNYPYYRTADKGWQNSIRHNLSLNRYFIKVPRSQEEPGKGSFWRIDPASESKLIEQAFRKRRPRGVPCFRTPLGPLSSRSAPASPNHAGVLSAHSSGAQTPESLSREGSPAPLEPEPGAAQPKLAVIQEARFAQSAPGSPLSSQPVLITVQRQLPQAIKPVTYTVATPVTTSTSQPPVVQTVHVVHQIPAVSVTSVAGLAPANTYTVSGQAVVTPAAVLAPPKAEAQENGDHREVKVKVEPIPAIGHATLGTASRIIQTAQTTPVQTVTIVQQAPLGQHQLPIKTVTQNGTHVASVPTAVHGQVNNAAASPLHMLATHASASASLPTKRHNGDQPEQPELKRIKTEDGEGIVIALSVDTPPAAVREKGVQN
# T1 sequence (Q01167 121-660): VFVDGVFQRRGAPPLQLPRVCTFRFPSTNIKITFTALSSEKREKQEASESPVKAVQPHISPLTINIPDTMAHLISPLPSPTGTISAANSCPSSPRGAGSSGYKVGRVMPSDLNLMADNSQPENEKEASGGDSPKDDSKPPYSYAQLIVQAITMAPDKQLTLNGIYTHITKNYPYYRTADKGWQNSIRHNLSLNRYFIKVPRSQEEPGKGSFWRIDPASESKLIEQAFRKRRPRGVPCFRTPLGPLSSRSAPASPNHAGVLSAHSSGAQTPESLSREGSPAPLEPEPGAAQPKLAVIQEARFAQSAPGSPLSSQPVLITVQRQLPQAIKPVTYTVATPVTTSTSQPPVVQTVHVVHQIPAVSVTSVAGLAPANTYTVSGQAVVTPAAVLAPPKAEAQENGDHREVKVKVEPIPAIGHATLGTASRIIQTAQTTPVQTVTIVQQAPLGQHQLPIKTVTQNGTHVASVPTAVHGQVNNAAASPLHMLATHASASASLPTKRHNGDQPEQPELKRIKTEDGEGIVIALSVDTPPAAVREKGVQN
# T5 sequence (Q01167 217-487, stated change not applied): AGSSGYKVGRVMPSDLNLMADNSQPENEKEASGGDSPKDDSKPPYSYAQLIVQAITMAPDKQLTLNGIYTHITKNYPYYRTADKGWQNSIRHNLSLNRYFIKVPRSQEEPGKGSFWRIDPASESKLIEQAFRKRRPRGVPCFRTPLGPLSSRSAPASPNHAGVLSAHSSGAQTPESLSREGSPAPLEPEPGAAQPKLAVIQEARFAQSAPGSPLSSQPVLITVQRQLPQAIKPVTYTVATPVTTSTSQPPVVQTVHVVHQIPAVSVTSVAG
# T4 sequence (Q01167 217-306, stated change not applied): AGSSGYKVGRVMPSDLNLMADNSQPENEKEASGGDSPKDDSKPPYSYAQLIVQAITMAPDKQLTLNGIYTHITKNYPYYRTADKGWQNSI
# T3 sequence (Q01167 258-492): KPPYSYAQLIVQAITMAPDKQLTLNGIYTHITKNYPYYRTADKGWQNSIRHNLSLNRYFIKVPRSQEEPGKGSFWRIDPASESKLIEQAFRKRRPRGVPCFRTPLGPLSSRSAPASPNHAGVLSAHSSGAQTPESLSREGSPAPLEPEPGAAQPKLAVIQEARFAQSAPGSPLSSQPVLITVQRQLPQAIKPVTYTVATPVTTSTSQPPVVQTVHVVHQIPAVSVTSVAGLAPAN
# T2 sequence (P08515 whole entry, the tested form may be a part, one chain of several): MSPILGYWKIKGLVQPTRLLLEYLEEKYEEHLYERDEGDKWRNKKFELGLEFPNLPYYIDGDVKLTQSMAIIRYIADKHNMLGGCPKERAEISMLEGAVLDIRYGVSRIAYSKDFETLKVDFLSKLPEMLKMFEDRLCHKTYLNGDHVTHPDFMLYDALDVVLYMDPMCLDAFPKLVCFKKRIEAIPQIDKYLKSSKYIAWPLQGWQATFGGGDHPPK
binder,measurement,setting,value
B1,binding result,[1],binds
B2,binding result,[2],no binding
same,binding result,[3],binds
same,binding result,[4],no binding
same,binding result,[5],binds
same,binding result,[6],binds
B3,binding result,[7],no binding
same,binding result,[8],binds
same,binding result,[9],binds
same,binding result,[10],binds
B4,binding result,[11],no binding
same,binding result,[12],no binding
same,binding result,[13],binds
same,binding result,[14],binds
same,binding result,[15],binds
B5,binding result,[16],no binding
B6,binding result,[17],no binding
same,binding result,[18],no binding
B7,binding result,[1],binds

# Reference: US5534631, “Cellular factor ILF” (Board of Regents, The University of Texas System)
